Values belong to the binder of their own block, whether it stands above or below them. Numbered stars: 1 amine (or outer) side, 2 acyl side, 3 side chain; on linkers, the order of the positions; unused ones are H or OH. Bridge positions count the residues as written; N and C are the ends. Side chains are listed from the residue outwards. Ends that are not written are not given here. * marks the point of attachment. C20 diacid = O=C(O)CCCCCCCCCCCCCCCCCCC(=O)*; γGlu = O=C(O)[C@H](CCC(=O)[*:2])N[*:1]; AEEA = NCCOCCOCC(=O)O
Key:
rat calcitonin receptor [1] = target: T1, rat calcitonin receptor (rat, UniProt P32214 25-516); test: SPA competition vs 125I-calcitonin, membranes of BHK cells with rat calcitonin receptor (Assay VIII)
T1 construct: whole, on cells; Membranes prepared from transiently transfected BHK tk'ts 13 cells (Assay VIII); also called rCTR; rCT
T1 sequence (looked up): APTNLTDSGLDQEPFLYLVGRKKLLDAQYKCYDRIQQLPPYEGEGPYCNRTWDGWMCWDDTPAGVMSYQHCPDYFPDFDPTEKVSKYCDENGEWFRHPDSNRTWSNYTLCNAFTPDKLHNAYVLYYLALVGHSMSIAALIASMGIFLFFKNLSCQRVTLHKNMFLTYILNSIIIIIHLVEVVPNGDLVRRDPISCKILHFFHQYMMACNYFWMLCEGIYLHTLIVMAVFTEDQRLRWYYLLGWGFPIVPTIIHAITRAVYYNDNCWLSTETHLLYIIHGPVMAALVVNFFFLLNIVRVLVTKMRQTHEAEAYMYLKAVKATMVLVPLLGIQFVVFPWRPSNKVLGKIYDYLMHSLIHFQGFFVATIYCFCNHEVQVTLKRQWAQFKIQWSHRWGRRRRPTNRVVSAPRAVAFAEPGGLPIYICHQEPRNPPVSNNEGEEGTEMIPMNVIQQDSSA

rat calcitonin receptor [2] = target: T1, rat calcitonin receptor; test: ratio of binding IC50s: rat calcitonin receptor / rat amylin receptor (reference)
[3] = target: T2, human calcitonin receptor (human, UniProt P30988 25-474); test: ratio of binding IC50s: human calcitonin receptor / human amylin receptor (reference)
T2 construct: whole, on cells; Membranes prepared from a stably transfected BHK cell line (Assay VII); also called hCTR; hCT
T2 sequence (looked up): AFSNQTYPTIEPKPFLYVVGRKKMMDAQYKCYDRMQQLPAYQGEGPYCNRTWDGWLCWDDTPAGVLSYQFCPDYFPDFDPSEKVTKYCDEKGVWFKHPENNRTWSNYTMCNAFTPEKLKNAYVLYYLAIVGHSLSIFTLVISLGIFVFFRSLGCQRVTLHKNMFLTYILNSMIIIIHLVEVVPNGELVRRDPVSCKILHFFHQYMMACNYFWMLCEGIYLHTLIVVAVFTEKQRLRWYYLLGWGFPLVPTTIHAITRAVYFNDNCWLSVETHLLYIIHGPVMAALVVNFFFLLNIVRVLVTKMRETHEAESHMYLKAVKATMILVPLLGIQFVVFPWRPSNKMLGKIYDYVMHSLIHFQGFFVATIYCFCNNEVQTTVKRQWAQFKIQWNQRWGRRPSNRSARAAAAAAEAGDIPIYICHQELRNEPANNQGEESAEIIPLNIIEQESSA
Experimental: The resulting pellet was resuspended, homogenized and centrifuged (20.000 rpm, 15 min) in a buffer containing 20 mM Na-HEPES and 0.1 mM EDTA (pH 7.4, buffer 2). The resulting pellet was resuspended in buffer 2 and protein concentration was measured (BCA protein Assay, Pierce). The homogenate was kept cold during the whole procedure. The membranes were kept at −80° C. until use. The assay was performed in a 384 well Optiplate (PerkinElmer) in a total volume of 40 ul. Membranes were mixed with SPA beads. Final concentration of membranes 35 ng/μL final and SPA beads was 0.05 mg/well. Test-compounds were dissolved in DMSO and further diluted in assay buffer (50 mM Hepes, pH 7.4, 1 mM CaCl2, 5 mM MgCl₂, 0.1% OA and 0.02% Tween20). […] The final mixture was incubated with shaking at 400 rpm for 120 min at 25° C. prior to centrifugation (1500 rpm, 10 min). Samples were analyzed on TopCounter™ (Packard). The IC₅₀ was calculated using (one site binding competition analysis) GraphPad Prism5 as a measure of receptor affinity.
Membranes were prepared in the following way; the cells were rinsed with PBS and incubated with Versene for approximately 5 min before harvesting. The cells were flushed with PBS and the cell-suspension was centrifuged for 5 min at 1000 rpm. Cells were homogenized (Ultrathurrax) in a buffer containing 20 mM Na-HEPES and 10 mM EDTA (pH 7.4) and centrifuged at 20.000 rpm for 15 min. The resulting pellet was resuspended, homogenized and centrifuged (20.000 rpm, 15 min) in a buffer containing 20 mM Na-HEPES and 0.1 mM EDTA (pH 7.4, buffer 2). The resulting pellet was resuspended in buffer 2 and protein concentration was measured (BCA protein Assay, Pierce). The homogenate was kept cold during the whole procedure. The membranes were kept at −80° C. until use. Assay was performed in a 384 well Optiplate (PerkinElmer) in a total volume of 40 ul. Membranes were mixed with SPA beads.

[4] = target: T3, rat amylin receptor (rat calcitonin receptor + rat RAMP 3) (rat, UniProt P32214 25-516; Q9JJ73 23-147); test: SPA competition vs 125I-rat amylin, membranes of BHK cells with rat calcitonin receptor + rat RAMP3 (Assay VI)
T3 construct: whole, on cells; Membranes prepared from transiently transfected BHK tk'ts 13 cells (Assay VI); also called rAmylin-R; rAmylin
T3 sequence (looked up) 1: T1 sequence (looked up)
T3 sequence (looked up) 2: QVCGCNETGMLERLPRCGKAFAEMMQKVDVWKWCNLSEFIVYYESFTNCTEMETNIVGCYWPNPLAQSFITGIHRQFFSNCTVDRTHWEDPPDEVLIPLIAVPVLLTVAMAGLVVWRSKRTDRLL
Experimental: The binding assay was performed using scintillation proximity assay (SPA) beads (RPNQ0001) from PerkinElmer and cell membranes from the Amylin 3(a)/CRE-luc cells (as described in Assay (II)) were used. Membranes were prepared in the following way; the cells were rinsed with PBS and incubated with Versene for approximately 5 min before harvesting. The cells were flushed with PBS and the cell-suspension was centrifuged for 5 min at 1000 rpm. Cells were homogenized (ultrathurrax) in a buffer containing 20 mM Na-HEPES and 10 mM EDTA (pH 7.4) and centrifuged at 20.000 rpm for 15 min. The resulting pellet was resuspended, homogenized and centrifuged (20.000 rpm, 15 min) in a buffer containing 20 mM Na-HEPES and 0.1 mM EDTA (pH 7.4, buffer 2). The resulting pellet was resuspended in buffer 2 and protein concentration was measured (BCA protein Assay, Pierce). The homogenate was kept cold during the whole procedure. The membranes were kept at −80° C. until use. The assay was performed in a 384 well Optiplate (PerkinElmer) in a total volume of 40 ul. Membranes were mixed with SPA beads. Final concentration of membranes 35 ng/μL final and SPA beads was 0.05 mg/well. Test-compounds were dissolved in DMSO and further diluted in assay buffer (50 mM Hepes, pH 7.4, 1 mM CaCl2, 5 mM MgCl₂, 0.1% OA and 0.02% Tween20). […] The final mixture was incubated with shaking at 400 rpm for 120 min at 25° C. prior to centrifugation (1500 rpm, 10 min). Samples were analyzed on TopCounter™ (Packard). The IC₅₀ was calculated using (one site binding competition analysis) GraphPad Prism5 as a measure of receptor affinity.
Cells were grown in DMEM with 10% FBS and 1% Pen/Strep. Approximately 48 hours after transfection, the cells were harvested and membranes were prepared.

- IC50 (rat calcitonin receptor [1]): 29.4 nM
- Ratio rCT/rAmylin binding (rat calcitonin receptor [2]): 76.3
- Ratio hCT/hAmylin binding [3]: 101
- IC50 [4]: 0.386 nM
B1: N^ε1-[2-[2-[2-(19-carboxynonadecanoylamino)ethoxy]ethoxy]acetyl]-[Arg17,Pro21,Pro27,His34]-h-amylin (peptide)
peptide: K([AEEA-C20 diacid])CNTATCATQRLANFLRHSSPNFGAIPSSTNVGHNTY-NH2
modifications: disulfide 2-7; N-terminus assumed
SMILES: CC[C@H](C)[C@H](NC(=O)[C@H](C)NC(=O)CNC(=O)[C@H](Cc1ccccc1)NC(=O)[C@H](CC(N)=O)NC(=O)[C@@H]1CCCN1C(=O)[C@H](CO)NC(=O)[C@H](CO)NC(=O)[C@H](Cc1c[nH]cn1)NC(=O)[C@H](CCCNC(=N)N)NC(=O)[C@H](CC(C)C)NC(=O)[C@H](Cc1ccccc1)NC(=O)[C@H](CC(N)=O)NC(=O)[C@H](C)NC(=O)[C@H](CC(C)C)NC(=O)[C@H](CCCNC(=N)N)NC(=O)[C@H](CCC(N)=O)NC(=O)[C@@H](NC(=O)[C@H](C)NC(=O)[C@@H]1CSSC[C@H](NC(=O)[C@@H](N)CCCCNC(=O)COCCOCCNC(=O)CCCCCCCCCCCCCCCCCCC(=O)O)C(=O)N[C@@H](CC(N)=O)C(=O)N[C@@H]([C@@H](C)O)C(=O)N[C@@H](C)C(=O)N[C@@H]([C@@H](C)O)C(=O)N1)[C@@H](C)O)C(=O)N1CCC[C@H]1C(=O)N[C@@H](CO)C(=O)N[C@@H](CO)C(=O)N[C@H](C(=O)N[C@@H](CC(N)=O)C(=O)N[C@H](C(=O)NCC(=O)N[C@@H](Cc1c[nH]cn1)C(=O)N[C@@H](CC(N)=O)C(=O)N[C@H](C(=O)N[C@@H](Cc1ccc(O)cc1)C(N)=O)[C@@H](C)O)C(C)C)[C@@H](C)O
notes: Analogue of human amylin; also called compound 91

- IC50 (rat calcitonin receptor [1]): 221 nM
- Ratio rCT/rAmylin binding (rat calcitonin receptor [2]): 259
- Ratio hCT/hAmylin binding [3]: 247
- IC50 [4]: 0.851 nM
B2: N^ε1-[2-[2-[2-[[(4S)-4-carboxy-4-(19-carboxynonadecanoylamino)butanoyl]amino]ethoxy]ethoxy]acetyl]-[Ala14,Arg17,Pro21,Pro27,Pro31]-h-amylin (peptide)
peptide: K([AEEA-γGlu-C20 diacid])CNTATCATQRLAAFLRHSSPNFGAIPSSTPVGSNTY-NH2
modifications: disulfide 2-7; N-terminus assumed
SMILES: CC[C@H](C)[C@H](NC(=O)[C@H](C)NC(=O)CNC(=O)[C@H](Cc1ccccc1)NC(=O)[C@H](CC(N)=O)NC(=O)[C@@H]1CCCN1C(=O)[C@H](CO)NC(=O)[C@H](CO)NC(=O)[C@H](Cc1c[nH]cn1)NC(=O)[C@H](CCCNC(=N)N)NC(=O)[C@H](CC(C)C)NC(=O)[C@H](Cc1ccccc1)NC(=O)[C@H](C)NC(=O)[C@H](C)NC(=O)[C@H](CC(C)C)NC(=O)[C@H](CCCNC(=N)N)NC(=O)[C@H](CCC(N)=O)NC(=O)[C@@H](NC(=O)[C@H](C)NC(=O)[C@@H]1CSSC[C@H](NC(=O)[C@@H](N)CCCCNC(=O)COCCOCCNC(=O)CC[C@H](NC(=O)CCCCCCCCCCCCCCCCCCC(=O)O)C(=O)O)C(=O)N[C@@H](CC(N)=O)C(=O)N[C@@H]([C@@H](C)O)C(=O)N[C@@H](C)C(=O)N[C@@H]([C@@H](C)O)C(=O)N1)[C@@H](C)O)C(=O)N1CCC[C@H]1C(=O)N[C@@H](CO)C(=O)N[C@@H](CO)C(=O)N[C@H](C(=O)N1CCC[C@H]1C(=O)N[C@H](C(=O)NCC(=O)N[C@@H](CO)C(=O)N[C@@H](CC(N)=O)C(=O)N[C@H](C(=O)N[C@@H](Cc1ccc(O)cc1)C(N)=O)[C@@H](C)O)C(C)C)[C@@H](C)O
notes: Analogue of human amylin; also called compound 72

- IC50 (rat calcitonin receptor [1]): 128 nM
- Ratio rCT/rAmylin binding (rat calcitonin receptor [2]): 64.7
- Ratio hCT/hAmylin binding [3]: 126
- IC50 [4]: 1.97 nM
B3: N^ε1-[2-[2-[2-[[(4S)-4-carboxy-4-(19-carboxynonadecanoylamino)butanoyl]amino]ethoxy]ethoxy]acetyl]-[Arg14,Arg17,Pro21,Pro27,Pro31]-h-amylin (peptide)
peptide: K([AEEA-γGlu-C20 diacid])CNTATCATQRLARFLRHSSPNFGAIPSSTPVGSNTY-NH2
modifications: disulfide 2-7; N-terminus assumed
SMILES: CC[C@H](C)[C@H](NC(=O)[C@H](C)NC(=O)CNC(=O)[C@H](Cc1ccccc1)NC(=O)[C@H](CC(N)=O)NC(=O)[C@@H]1CCCN1C(=O)[C@H](CO)NC(=O)[C@H](CO)NC(=O)[C@H](Cc1c[nH]cn1)NC(=O)[C@H](CCCNC(=N)N)NC(=O)[C@H](CC(C)C)NC(=O)[C@H](Cc1ccccc1)NC(=O)[C@H](CCCNC(=N)N)NC(=O)[C@H](C)NC(=O)[C@H](CC(C)C)NC(=O)[C@H](CCCNC(=N)N)NC(=O)[C@H](CCC(N)=O)NC(=O)[C@@H](NC(=O)[C@H](C)NC(=O)[C@@H]1CSSC[C@H](NC(=O)[C@@H](N)CCCCNC(=O)COCCOCCNC(=O)CC[C@H](NC(=O)CCCCCCCCCCCCCCCCCCC(=O)O)C(=O)O)C(=O)N[C@@H](CC(N)=O)C(=O)N[C@@H]([C@@H](C)O)C(=O)N[C@@H](C)C(=O)N[C@@H]([C@@H](C)O)C(=O)N1)[C@@H](C)O)C(=O)N1CCC[C@H]1C(=O)N[C@@H](CO)C(=O)N[C@@H](CO)C(=O)N[C@H](C(=O)N1CCC[C@H]1C(=O)N[C@H](C(=O)NCC(=O)N[C@@H](CO)C(=O)N[C@@H](CC(N)=O)C(=O)N[C@H](C(=O)N[C@@H](Cc1ccc(O)cc1)C(N)=O)[C@@H](C)O)C(C)C)[C@@H](C)O
notes: Analogue of human amylin; also called compound 64

Source: US20140087995A1 (published 2014)
